Reference: US20090117111A1

Target: FcγRIIIa on NK cells of V/F donors (both aa158 allotypes, V and F) (human)
Assay: cell-based or functional assay

Row | Substance | ED50 for lysis of the Daudi cell line (ADCC, purified NK cells, V/F donors) [nM]
1 | monoclonal antibody CHIR-12.12 | 0.002
2 | rituximab (Rituxan) (antibody) | 0.021
